Here are results for two substances from article PMC5091765.

Assay [1] concerns the target bovine TGF-β RI extracellular domain fused to the human IgG1 Fc domain (bovine) (UniProt O46680). The experiment in a line: ELISA; competition: FhTLM coated at 400 ng/mL; increasing concentrations of TGF-β incubated with the Receptor-Fc fusion in solution at 37°C for 1 hr, then added to the plate.
Assay [2] has as its target bovine TGF-β RII extracellular domain fused to the human IgG1 Fc domain (bovine). The assay is described as above.
Assay [3] deals with bovine TGF-β RI extracellular domain fused to the human IgG1 Fc domain (bovine) (UniProt O46680).
Sequence of bovine TGF-β RI extracellular domain fused to the human IgG1 Fc domain (bovine) (O46680 30-122): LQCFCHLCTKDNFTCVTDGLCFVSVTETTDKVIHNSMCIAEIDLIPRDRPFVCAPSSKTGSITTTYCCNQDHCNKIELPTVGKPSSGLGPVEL
For assay [4], the target named is bovine TGF-β RII extracellular domain fused to the human IgG1 Fc domain (bovine).
The target in assay [5] is bovine TGF-β RI extracellular domain fused to the human IgG1 Fc domain (bovine) (UniProt O46680). Description: ELISA; competition: TGF-β coated at 400 ng/mL; increasing concentrations of FhTLM incubated with the Receptor-Fc fusion in solution at 37°C for 1 hr, then added to the plate.
The target of assay [6] is bovine TGF-β RII extracellular domain fused to the human IgG1 Fc domain (bovine). The description is as above.

In assay [1], human TGF-β1 (ligand) displayed a percent reduction of the binding of TGF-β RI-Fc (printed as TGF-β RII-Fc a second time) to immobilised FhTLM of 22%. The substance also showed a percent reduction of the binding of TGF-β RII-Fc to immobilised FhTLM in assay [2] of 50%.

As to “F. hepatica TGF-like molecule, FhTLM (recombinant) (ligand)”, the percent of primary bovine PBMCs positive for pSmad2/3 co-localised with the nucleus, 3 to 4 hrs with FhTLM in assay [3] and in assay [4] was 15.8 % of cells in each case. Moreover, in assay [5], the percent reduction of the binding of TGF-β RI-Fc to immobilised TGF-β1 stood at 42%. This substance also displayed a percent reduction of the binding of TGF-β RII-Fc to immobilised TGF-β1 in assay [6] of 46%.
